Results: EP2835135A2, “Means and methods for treating pseudomonas infection” (Max-Planck-Gesellschaft zur Förderung der Wissenschaften …, priority 2013, dated 2015)
Bridge positions count the residues as written; N and C are the ends. Square brackets hold non-standard residues; d marks the D form. Ends that are not written are not given here. S5 = C=CCCC[C@](C)(N)C(=O)O

What was measured:
14-3-3 [1] = biological target: T1, 14-3-3 (Homo sapiens, UniProt P63104); test: FP competition experiment: labeled peptide preincubated with 14-3-3 and titrated with unlabeled WT peptide; assay type: binding; conditions: FITC-labeled peptide 20 nM, 14-3-3 4.0 µM, Figure 7
T1 sequence (P63104 1-245): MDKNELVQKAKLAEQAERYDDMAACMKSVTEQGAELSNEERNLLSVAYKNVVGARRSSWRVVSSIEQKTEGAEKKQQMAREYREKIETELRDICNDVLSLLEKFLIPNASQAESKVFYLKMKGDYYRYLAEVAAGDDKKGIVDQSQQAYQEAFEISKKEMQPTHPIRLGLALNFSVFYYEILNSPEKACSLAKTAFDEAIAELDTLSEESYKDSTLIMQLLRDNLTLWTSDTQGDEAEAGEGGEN
From the text: The figures show: • Figure 1: (A) Schemetic representaion of ExoS' role in P. aeruginosa infection. (B) Crystal structure of 14-3-3 binding domain of ExoS bound to 14-3-3 (PDB 2002). • Figure 2: (A) Concept for an antibiotic strategy against P. aeruginosa. (B) Overlaid structures of 14-3-3 in complex with 14-3-3 binding domains of ExoS (PDB 2002) and endogenous phosphorylated sequences (PDB 1QJA, 1YWT, 2B05, 2BR9, 2BTP, 2C1J, 2C1N, 2C63, 2C74, 2NPM, 2IQV, 3LW1). • Figure 3: Alignment of 14-3-3 residues involved in inhibitor binding. • Figure 4: Dual assay for the identification of inhibitors of 14-3-3/ExoS interaction that would not affect interactions of 14-3-3 with endogenous binding parterns. L^1 and L^2 as well as L^3 and L^4 are chosen in order to allow a fluorescence polarization readout, ALPHA screen ("Amplified Luminescent Proximity Homogeneous Assay") or HRTF screen ("homogeneous time resolved fluorescence"; both ALPHA and HRTF screens are very sensitive homogeneous assay technologies that allow the screening of interactions in a proximity sensitive fashion). • Figure 5: (A) Crystal structure of ^420[…]^430 (sticks) complexed to 14-3-3 ζ ΔC (spacefill). The 2FC - F0 density is scaled to 1σ (grid). (B) Superimposition of truncated ExoS peptide (^420[…]^430) with the previously reported ExoS peptide (^416[…]^430, PDB 2002). […]

14-3-3 [2] = biological target: T1, 14-3-3; test: Fluorescence polarization (FP) assay: fluorescein-labeled peptides titrated with unlabeled 14-3-3 protein; assay type: binding; conditions: three cross-link architectures (C8-linker), Figure 6B
From the text: A fluorescence polarization (FP) assay was used to determine the affinity of fluorescein-labeled truncated versions of this peptide to 14-3-3 (Table 1). […] The labeled peptides were titrated with unlabeled 14-3-3 protein.
The binding affinities were again determined using FP.
The binding affinity of the non-classic cross-linked peptides was investigated using FP (Figure 6C).

Compound	displacement of the labeled peptide by unlabeled WT peptide (14-3-3 [1])	affinity for 14-3-3 compared to the starting sequence (WT) (14-3-3 [2])
CC(C)C[C@H](NC(=O)CNC(=O)[C@@H](N)CCC(N)=O)C(=O)N[C@@H](CC(C)C)C(=O)N[C@@H](CC(=O)O)C(=O)N[C@@H](C)C(=O)N[C@@H](CC(C)C)C(=O)N[C@@H](CC(=O)O)C(=O)N[C@@H](CC(C)C)C(=O)N[C@@H](C)C(=O)N[C@@H](CO)C(=O)O	displacement by unlabeled WT peptide	
γ cross-linked peptide: ExoS 11-mer with γ cross-link (i,i+3) at positions Leu426 and Leu423 (R5 and S5, respectively), C8-linker (QGLXDAXDLAS; non-natural residues)		significantly decreased binding affinity
α cross-linked peptide: ExoS 11-mer with α cross-link (i,i+4): residues Leu426 and Leu422 replaced with S5, C8-linker (QG[S5]LDA[S5]DLAS; staple 3-7)		significantly decreased binding affinity
